US20130180016A1

Columns and labels:
[1] = molecular target: putative receptor(s) on brush border membrane vesicles (BBMV) prepared from midguts of third instars of the western corn rootworm (Diabrotica virgifera virgifera LeConte) (Diabrotica virgifera virgifera); assay: saturation radioligand binding to western corn rootworm BBMV (0.1 mg/ml), GraphPad Prism fit
[2] = molecular target: putative receptor(s) on brush border membrane vesicles (BBMV) prepared from midguts of third instars of the western corn rootworm (Diabrotica virgifera virgifera LeConte) (Diabrotica virgifera virgifera); assay: homologous competition, 5 nM 125I-Cry3Ba1 on western corn rootworm BBMV (0.1 mg/ml), unlabelled Cry3Ba1 (0-2,500 nM) as competitor
[3] = molecular target: putative receptor(s) on brush border membrane vesicles (BBMV) prepared from midguts of third instars of the western corn rootworm (Diabrotica virgifera virgifera LeConte) (Diabrotica virgifera virgifera)

B1: Cry3Ba1 trypsin core (protein)
chain: SQDRIRELFSQAESHFRNSMPSFAVSKFEVLFLPTYAQAANTHLLLLKDAQVFGEEWGYSSEDIAEFYQRQLKLTQQYTDHCVNWYNVGLNSLRGSTYDAWVKFNRFRREMTLTVLDLIVLFPFYDVRLYSKGVKTELTRDIFTDPIFTLNALQEYGPTFSSIENSIRKPHLFDYLRGIEFHTRLRPGYSGKDSFNYWSGNYVETRPSIGSNDTITSPFYGDKSIEPIQKLSFDGQKVYRTIANTDIAAFPDGKIYFGVTKVDFSQYDDQKNETSTQTYDSKRYNGYLGAQDSIDQLPPETTDEPLEKAYSHQLNYAECFLMQDRRGTIPFFTWTHRSVDFFNTIDAEKITQLPVVKAYALSSGASIIEGPGFTGGNLLFLKESSNSIAKFKVTLNSAALLQRYRVRIRYASTTNLRLFVQNSNNDFLVIYINKTMNIDGDLTYQTFDFATSNSNMGFSGDTNDFIIGAESFVSNEKIYIDKIEFIPVQ
modifications: 125I-iodinated (Pierce Iodination Beads, Na125I) where used as the labelled ligand; unlabelled where used as competitor
Binder B1 has a Kd [1] of 7.35 nM, a binding site concentration Bmax [1] of 0.55 pmol/mg BBMV and a percent of the total binding displaced [2] greater than 20%.

B2: Cry35Ab1 chymotrypsin core (chymotrypsin-truncated Cry35Ab1 core protein) (protein)
chain: MLDTNKVYEISNHANGLYAATYLSLDDSGVSLMNKNDDDIDDYNLKWFLFPIDDDQYIITSYAANNCKVWNVNNDKINVSTYSSTNSIQKWQIKANGSSYVIQSDNGKVLTAGTGQALGLIRLTDESSNNPNQQWNLTSVQTIQLPQKPIIDTKLKDYPKYSPTGNIDNGTSPQLMGWTLVPCIMVNDPNIDKNTQIKTTPYYILKKYQYWQRAVGSNVALRPHEKKSYTYEWGTEIDQKTTIINTLGFQINIDSGMKFDIPEVGGGTDEIKTQLNEELKIEYSHETKIMEKYQEQSEIDNPTDQSMNSIGFLTITSLELYRYNGSEIRIMQIQTSDNDTYNVTSYPNHQQALL
modifications: 125I-iodinated (Pierce Iodination Beads, Na125I) where used as the labelled ligand; unlabelled where used as competitor
For B2, the Kd [1] was 11.7 nM and the binding site concentration Bmax [1] was 0.78 pmol/mg BBMV.

B3: mixture of Cry35Ab1+Cry34Ab1 (binary toxin) (protein)
chain 1: B2 chain
chain 2: MSAREVHIDVNNKTGHTLQLEDKTKLDGGRWRTSPTNVANDQIKTFVAESNGFMTGTEGTIYYSINGEAEISLYFDNPFAGSNKYDGHSNKSQYEIITQGGSGNQSHVTYTIQTTSSRYGHKS
modifications: 125I-iodinated where the mixture holds the labelled ligand
With B3 the specific binding as percent of the total binding [3] was 90%.
